The supplement of paper PMC9112550, “Optimization of the antimicrobial peptide Bac7 by deep mutational scanning” (BMC Biology, 2022)

tested on: Escherichia coli TOP10; assay: shrunken log2 fold change of peptide-encoding DNA abundance (4.5 h post-induction vs induction); higher = less antimicrobial activity (less host growth inhibition); conditions: time post-induction: 4.5 h; library: site-saturation at positions 5, 18, 19, 20
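Also: peptides expressed intracellularly from a pBAD plasmid library in pooled LB shake-flask culture, induced with 0.3% L-arabinose, DNA abundance read by NGS, three biological replicates, DESeq2 with apeglm shrinkage.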

| Sequence | shrunken log2 fold change |
| --- | --- |
| RRIRNRPPRLPRPRPRPHNTPRP | -0.643 |
| RRIRFRPPRLPRPRPRPYYRPRP | 0.0478 |
| RRIRDRPPRLPRPRPRPHNRPRP | -0.00159 |
| RRIRERPPRLPRPRPRPVWHPRP | -0.154 |
| RRIRARPPRLPRPRPRPCYGPRP | -0.246 |
| RRIRTRPPRLPRPRPRPTKEPRP | -0.0327 |
| RRIRSRPPRLPRPRPRPWNNPRP | -0.627 |
| RRIRERPPRLPRPRPRPRFMPRP | -0.0944 |
| RRIRPRPPRLPRPRPRPYIMPRP | -0.976 |
| RRIRFRPPRLPRPRPRPVTNPRP | -0.0718 |
| RRIRDRPPRLPRPRPRPLWMPRP | 0.0442 |
| RRIRMRPPRLPRPRPRPGRKPRP | 1.32 |
| RRIRWRPPRLPRPRPRPDTVPRP | -0.0246 |
| RRIRGRPPRLPRPRPRPYYSPRP | -0.207 |
| RRIRERPPRLPRPRPRPPQEPRP | 0.192 |
| RRIRGRPPRLPRPRPRPNCYPRP | 0.183 |
| RRIRPRPPRLPRPRPRPIDIPRP | -0.252 |
| RRIRKRPPRLPRPRPRPHHMPRP | -0.0738 |
| RRIRNRPPRLPRPRPRPIWPPRP | 0.152 |
| RRIRARPPRLPRPRPRPPPTPRP | 1.13 |
| RRIRERPPRLPRPRPRPQRQPRP | 0.0791 |
| RRIRWRPPRLPRPRPRPFPLPRP | -0.297 |

| Sequence | shrunken log2 fold change |
| --- | --- |
| RRIRIRPPRLPRPRPRPELHPRP | -0.2 |
| RRIRKRPPRLPRPRPRPSDHPRP | -0.239 |
| RRIRQRPPRLPRPRPRPMSLPRP | -0.13 |
| RRIRFRPPRLPRPRPRPLNPPRP | -0.1 |
| RRIRPRPPRLPRPRPRPVSYPRP | -0.245 |
| RRIRHRPPRLPRPRPRPEPVPRP | 0.0556 |
| RRIRLRPPRLPRPRPRPKKGPRP | -0.166 |
| RRIRWRPPRLPRPRPRPDECPRP | -0.012 |
| RRIRARPPRLPRPRPRPKQTPRP | 0.453 |
| RRIRGRPPRLPRPRPRPYCNPRP | -0.411 |
| RRIRWRPPRLPRPRPRPVGMPRP | 0.456 |
| RRIRLRPPRLPRPRPRPEWQPRP | -0.0018 |
| RRIRDRPPRLPRPRPRPWNIPRP | 0.0629 |
| RRIRSRPPRLPRPRPRPGVYPRP | -0.0749 |
| RRIRDRPPRLPRPRPRPYWNPRP | -0.602 |
| RRIRQRPPRLPRPRPRPKACPRP | 0.0193 |
| RRIRMRPPRLPRPRPRPTDHPRP | 0.309 |
| RRIRARPPRLPRPRPRPYIFPRP | -0.277 |
| RRIRMRPPRLPRPRPRPTYFPRP | -0.0299 |
| RRIRGRPPRLPRPRPRPTAAPRP | 1.97 |
| RRIRKRPPRLPRPRPRPIEIPRP | -0.0122 |
| RRIRERPPRLPRPRPRPESAPRP | 0.056 |

| Sequence | shrunken log2 fold change |
| --- | --- |
| RRIRGRPPRLPRPRPRPNYYPRP | -0.254 |
| RRIRHRPPRLPRPRPRPSRRPRP | -0.105 |
| RRIRHRPPRLPRPRPRPPSQPRP | -0.232 |
| RRIRERPPRLPRPRPRPRLYPRP | -0.448 |
| RRIRHRPPRLPRPRPRPMRTPRP | -0.11 |
| RRIRWRPPRLPRPRPRPLCPPRP | 0.0748 |
| RRIRQRPPRLPRPRPRPSPQPRP | 0.548 |
| RRIRDRPPRLPRPRPRPPWQPRP | 0.475 |
| RRIRARPPRLPRPRPRPANAPRP | 0.301 |
| RRIRGRPPRLPRPRPRPCIMPRP | 0.177 |
| RRIRYRPPRLPRPRPRPICNPRP | -0.332 |
| RRIRCRPPRLPRPRPRPHECPRP | -0.3 |
| RRIRARPPRLPRPRPRPWCVPRP | 0.201 |
| RRIRGRPPRLPRPRPRPFKGPRP | -0.00192 |
| RRIRNRPPRLPRPRPRPEPPPRP | 0.758 |
| RRIRMRPPRLPRPRPRPPFLPRP | 0.305 |
| RRIRDRPPRLPRPRPRPNQTPRP | 0.0331 |
| RRIRLRPPRLPRPRPRPVFPPRP | 0.263 |
| RRIRCRPPRLPRPRPRPNIWPRP | -0.178 |
| RRIRHRPPRLPRPRPRPHNTPRP | -0.709 |
| RRIRSRPPRLPRPRPRPALIPRP | 0.0414 |
| RRIRFRPPRLPRPRPRPYSTPRP | 0.0586 |

| Sequence | shrunken log2 fold change |
| --- | --- |
| RRIRPRPPRLPRPRPRPDYWPRP | 0.207 |
| RRIRVRPPRLPRPRPRPKKFPRP | -0.0429 |
| RRIRIRPPRLPRPRPRPMAQPRP | 0.00812 |
| RRIRHRPPRLPRPRPRPTTAPRP | 0.0968 |
| RRIRARPPRLPRPRPRPLGQPRP | 0.432 |
| RRIRARPPRLPRPRPRPPFDPRP | 0.922 |
| RRIRKRPPRLPRPRPRPKGIPRP | 0.106 |
| RRIRCRPPRLPRPRPRPCHQPRP | 0.0175 |
| RRIRRRPPRLPRPRPRPRKCPRP | 0.22 |
| RRIRCRPPRLPRPRPRPHINPRP | -0.501 |
| RRIRARPPRLPRPRPRPFEWPRP | -0.0571 |
| RRIRTRPPRLPRPRPRPHLKPRP | -0.207 |
| RRIRIRPPRLPRPRPRPENCPRP | -0.00941 |
| RRIRERPPRLPRPRPRPPNFPRP | -0.329 |
| RRIRPRPPRLPRPRPRPTDRPRP | 0.121 |
| RRIRNRPPRLPRPRPRPDHIPRP | 0.00647 |
| RRIRWRPPRLPRPRPRPNCGPRP | 0.192 |
| RRIRHRPPRLPRPRPRPVTPPRP | -0.00938 |
| RRIRWRPPRLPRPRPRPMNRPRP | -0.00448 |
| RRIRSRPPRLPRPRPRPGPYPRP | -0.325 |
| RRIRKRPPRLPRPRPRPPWFPRP | 0.309 |
| RRIRGRPPRLPRPRPRPWFNPRP | -0.18 |

| Sequence | shrunken log2 fold change |
| --- | --- |
| RRIRPRPPRLPRPRPRPYNCPRP | -1.4 |
| RRIRHRPPRLPRPRPRPVKWPRP | 0.421 |
| RRIRYRPPRLPRPRPRPEHFPRP | -0.0545 |
| RRIRRRPPRLPRPRPRPTRPPRP | 1.02 |
| RRIRRRPPRLPRPRPRPEKSPRP | 0.0868 |
| RRIRPRPPRLPRPRPRPLPFPRP | -0.75 |
| RRIRGRPPRLPRPRPRPYTHPRP | -0.426 |
| RRIRMRPPRLPRPRPRPVNAPRP | 0.297 |
| RRIRKRPPRLPRPRPRPHCYPRP | -0.605 |
| RRIRMRPPRLPRPRPRPEFLPRP | 0.113 |
| RRIRVRPPRLPRPRPRPCAWPRP | 0.27 |
| RRIRDRPPRLPRPRPRPLWYPRP | -0.421 |
| RRIRIRPPRLPRPRPRPWWGPRP | 0.0378 |
| RRIRPRPPRLPRPRPRPVEGPRP | 0.0448 |
| RRIRPRPPRLPRPRPRPFGNPRP | -0.146 |
| RRIRDRPPRLPRPRPRPPFTPRP | 1.76 |
| RRIRLRPPRLPRPRPRPAAQPRP | 1.25 |
| RRIRGRPPRLPRPRPRPAFCPRP | 0.731 |
| RRIRIRPPRLPRPRPRPVGMPRP | 0.0752 |
| RRIRTRPPRLPRPRPRPWGEPRP | 0.183 |
| RRIRERPPRLPRPRPRPKDPPRP | 0.0145 |
